Assay results published in the supplement of paper PMC5998384.

Experiments:
HeLa Kyoto [1] = test: melting temperature (median over replicates), in situ; higher = more thermally stable
HeLa Kyoto [2] = test: thermal stability score vs G1/S (z-score of summed log2 fold changes over temperatures); higher = more thermally stable than in G1/S
HeLa Kyoto [3] = test: solubility in G1/S (NP-40 vs SDS abundance) (log2 ratio); higher = more soluble; conditions: cell cycle stage: G1/S
HeLa Kyoto [4] = test: solubility change mitosis vs G1/S (difference of NP-40 vs SDS log2 ratios) (log2 ratio difference); higher = more soluble in mitosis
[5] = cell cycle stage: early G1 (4.5 h after nocodazole release)
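For melting temperature (median over replicates), in situ in this document: HeLa Kyoto cells synchronized by double thymidine or nocodazole block, proteins quantified by TMT10plex mass spectrometry, three independent biological replicates.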
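For solubility change mitosis vs G1/S (difference of NP-40 vs SDS log2 ratios) in this document: synchronized HeLa Kyoto cells (double thymidine block for G1/S, nocodazole release for mitosis), protein amounts in NP-40 versus SDS lysates quantified by mass spectrometry, three biological replicates.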
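For solubility in G1/S (NP-40 vs SDS abundance) in this document: HeLa Kyoto cells arrested at G1/S by double thymidine block, proteins quantified by TMT10plex mass spectrometry in mild NP-40 versus SDS extracts, three biological replicates.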
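For thermal stability score vs G1/S (z-score of summed log2 fold changes over temperatures) in this document: synchronized HeLa Kyoto cells, proteins quantified by TMT10plex mass spectrometry, three biological replicates, mitosis taken 0.5 h after nocodazole release, G1/S directly after double thymidine block.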

Chain of WRAP53 (chain, as listed by the source): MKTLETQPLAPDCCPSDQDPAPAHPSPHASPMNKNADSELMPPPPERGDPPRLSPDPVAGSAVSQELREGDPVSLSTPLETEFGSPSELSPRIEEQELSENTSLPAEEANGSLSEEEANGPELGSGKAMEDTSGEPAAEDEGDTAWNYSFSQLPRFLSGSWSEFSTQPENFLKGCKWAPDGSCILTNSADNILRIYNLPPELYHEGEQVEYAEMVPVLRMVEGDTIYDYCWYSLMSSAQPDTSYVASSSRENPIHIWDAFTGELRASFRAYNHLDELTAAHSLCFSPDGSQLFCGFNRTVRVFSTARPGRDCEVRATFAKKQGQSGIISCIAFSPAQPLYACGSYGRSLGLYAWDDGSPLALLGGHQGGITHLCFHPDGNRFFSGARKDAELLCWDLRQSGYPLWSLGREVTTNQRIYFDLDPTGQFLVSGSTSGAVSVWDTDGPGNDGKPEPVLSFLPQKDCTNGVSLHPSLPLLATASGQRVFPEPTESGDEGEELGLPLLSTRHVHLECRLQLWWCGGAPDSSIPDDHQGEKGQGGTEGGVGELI

Row | Substance | melting temperature (HeLa Kyoto [1]; cell cycle stage: G1/S) | melting temperature (HeLa Kyoto [1]; cell cycle stage: mitosis) | thermal stability score (HeLa Kyoto [2]; [5]) | thermal stability score (HeLa Kyoto [2]; cell cycle stage: mitosis) | solubility in G1/S (log2) (HeLa Kyoto [3]) | solubility change mitosis (log2) (HeLa Kyoto [4])
1 | MCDLRRPAAGGMMDLAYVCEWEKWSKSTHCPSVPLACAWSCRNLIAFTMDLRSDDQDLTRMIHILDTEHPWDLHSIPSEHHEAITCLEWDQSGSRLLSADADGQIKCWSMADHLANSWESSVGSLVEGDPIVALSWLHNGVKLALHVEKSGASSFGEKFSRVKFSPSLTLFGGKPMEGWIAVTVSGLVTVSLLKPSGQVLTSTESLCRLRGRVALADIAFTGGGNIVVATADGSSASPVQFYKVCVSVVSEKCRIDTEILPSLFMRCTTDLNRKDKFPAITHLKFLARDMSEQVLLCASSQTSSIVECWSLRKEGLPVNNIFQQISPVVGDKQPTILKWRILSATNDLDRVSAVALPKLPISLTNTDLKVASDTQFYPGLGLALAFHDGSVHIVHRLSLQTMAVFYSSAAPRPVDEPAMKRPRTAGPAVHLKAMQLSWTSLALVGIDSHGKLSVLRLSPSMGHPLEVGLALRHLLFLLEYCMVTGYDWWDILLHVQPSMVQSLVEKLHEEYTRQTAALQQVLSTRILAMKASLCKLSPCTVTRVCDYHTKLFLIAISSTLKSLLRPHFLNTPDKSPGDRLTEICTKITDVDIDKVMINLKTEEFVLDMNTLQALQQLLQWVGDFVLYLLASLPNQGSLLRPGHSFLRDGTSLGMLRELMVVIRIWGLLKPSCLPVYTATSDTQDSMSLLFRLLTKLWICCRDEGPASEPDEALVDECCLLPSQLLIPSLDWLPASDGLVSRLQPKQPLRLQFGRAPTLPGSAATLQLDGLARAPGQPKIDHLRRLHLGACPTEECKACTRCGCVTMLKSPNRTTAVKQWEQRWIKNCLAVEGRGPDACVTSRASEEAPAFVQLGPQSTHHSPRTPRSLDHLHPEDRP [MED16] | 52.2 °C | 52 °C | 0.307 | 0.64 | -0.121 | -0.185
2 | MYTFVVRDENSSVYAEVSRLLLATGHWKRLRRDNPRFNLMLGERNRLPFGRLGHEPGLVQLVNYYRGADKLCRKASLVKLIKTSPELAESCTWFPESYVIYPTNLKTPVAPAQNGIQPPISNSRTDEREFFLASYNRKKEDGEGNVWIAKSSAGAKGEGILISSEASELLDFIDNQGQVHVIQKYLEHPLLLEPGHRKFDIRSWVLVDHQYNIYLYREGVLRTASEPYHVDNFQDKTCHLTNHCIQKEYSKNYGKYEEGNEMFFKEFNQYLTSALNITLESSILLQIKHIIRNCLLSVEPAISTKHLPYQSFQLFGFDFMVDEELKVWLIEVNGAPACAQKLYAELCQGIVDIAISSVFPPPDVEQPQTQPAAFIKL [TTL] | 53.9 °C | 53.4 °C | 0.614 | -0.119 | 0.146 | -0.197
3 | WRAP53 | 53.7 °C | 53.4 °C | -1.59 | -0.902 | -0.0145 | -0.144
4 | MSSTSPNLQKAIDLASKAAQEDKAGNYEEALQLYQHAVQYFLHVVKYEAQGDKAKQSIRAKCTEYLDRAEKLKEYLKNKEKKAQKPVKEGQPSPADEKGNDSDGEGESDDPEKKKLQNQLQGAIVIERPNVKWSDVAGLEGAKEALKEAVILPIKFPHLFTGKRTPWRGILLFGPPGTGKSYLAKAVATEANNSTFFSISSSDLVSKWLGESEKLVKNLFQLARENKPSIIFIDEIDSLCGSRSENESEAARRIKTEFLVQMQGVGVDNDGILVLGATNIPWVLDSAIRRRFEKRIYIPLPEPHARAAMFKLHLGTTQNSLTEADFRELGRKTDGYSGADISIIVRDALMQPVRKVQSATHFKKVRGPSRADPNHLVDDLLTPCSPGDPGAIEMTWMDVPGDKLLEPVVSMSDMLRSLSNTKPTVNEHDLLKLKKFTEDFGQEG [VPS4B] | 50.5 °C | 50.2 °C | 0.98 | 1.43 | 0.414 | -0.125
5 | MPRIMIKGGVWRNTEDEILKAAVMKYGKNQWSRIASLLHRKSAKQCKARWYEWLDPSIKKTEWSREEEEKLLHLAKLMPTQWRTIAPIIGRTAAQCLEHYEFLLDKAAQRDNEEETTDDPRKLKPGEIDPNPETKPARPDPIDMDEDELEMLSEARARLANTQGKKAKRKAREKQLEEARRLAALQKRRELRAAGIEIQKKRKRKRGVDYNAEIPFEKKPALGFYDTSEENYQALDADFRKLRQQDLDGELRSEKEGRDRKKDKQHLKRKKESDLPSAILQTSGVSEFTKKRSKLVLPAPQISDAELQEVVKVGQASEIARQTAEESGITNSASSTLLSEYNVTNNSVALRTPRTPASQDRILQEAQNLMALTNVDTPLKGGLNTPLHESDFSGVTPQRQVVQTPNTVLSTPFRTPSNGAEGLTPRSGTTPKPVINSTPGRTPLRDKLNINPEDGMADYSDPSYVKQMERESREHLRLGLLGLPAPKNDFEIVLPENAEKELEEREIDDTYIEDAADVDARKQAIRDAERVKEMKRMHKAVQKDLPRPSEVNETILRPLNVEPPLTDLQKSEELIKKEMITMLHYDLLHHPYEPSGNKKGKTVGFGTNNSEHITYLEHNPYEKFSKEELKKAQDVLVQEMEVVKQGMSHGELSSEAYNQVWEECYSQVLYLPGQSRYTRANLASKKDRIESLEKRLEINRGHMTTEAKRAAKMEKKMKILLGGYQSRAMGLMKQLNDLWDQIEQAHLELRTFEELKKHEDSAIPRRLECLKEDVQRQQEREKELQHRYADLLLEKETLKSKF [CDC5L] | 47.5 °C | 48.7 °C | 3.11 | 6.1 | -0.778 | 0.483
6 | MSVACVLKRKAVLWQDSFSPHLKHHPQEPANPNMPVVLTSGTGSQAQPQPAANQALAAGTHSSPVPGSIGVAGRSQDDAMVDYFFQRQHGEQLGGGGSGGGGYNNSKHRWPTGDNIHAEHQVRSMDELNHDFQALALEGRAMGEQLLPGKKFWETDESSKDGPKGIFLGDQWRDSAWGTSDHSVSQPIMVQRRPGQSFHVNSEVNSVLSPRSESGGLGVSMVEYVLSSSPGDSCLRKGGFGPRDADSDENDKGEKKNKGTFDGDKLGDLKEEGDVMDKTNGLPVQNGIDADVKDFSRTPGNCQNSANEVDLLGPNQNGSEGLAQLTSTNGAKPVEDFSNMESQSVPLDPMEHVGMEPLQFDYSGTQVPVDSAAATVGLFDYNSQQQLFQRPNALAVQQLTAAQQQQYALAAAHQPHIGLAPAAFVPNPYIISAAPPGTDPYTAGLAAAATLGPAVVPHQYYGVTPWGVYPASLFQQQAAAAAAATNSANQQTTPQAQQGQQQVLRGGASQRPLTPNQNQQGQQTDPLVAAAAVNSALAFGQGLAAGMPGYPVLAPAAYYDQTGALVVNAGARNGLGAPVRLVAPAPVIISSSAAQAAVAAAAASANGAAGGLAGTTNGPFRPLGTQQPQPQPQQQPNNNLASSSFYGNNSLNSNSQSSSLFSQGSAQPANTSLGFGSSSSLGATLGSALGGFGTAVANSNTGSGSRRDSLTGSSDLYKRTSSSLTPIGHSFYNGLSFSSSPGPVGMPLPSQGPGHSQTPPPSLSSHGSSSSLNLGGLTNGSGRYISAAPGAEAKYRSASSASSLFSPSSTLFSSSRLRYGMSDVMPSGRSRLLEDFRNNRYPNLQLREIAGHIMEFSQDQHGSRFIQLKLERATPAERQLVFNEILQAAYQLMVDVFGNYVIQKFFEFGSLEQKLALAERIRGHVLSLALQMYGCRVIQKALEFIPSDQQNEMVRELDGHVLKCVKDQNGNHVVQKCIECVQPQSLQFIIDAFKGQVFALSTHPYGCRVIQRILEHCLPDQTLPILEELHQHTEQLVQDQYGNYVIQHVLEHGRPEDKSKIVAEIRGNVLVLSQHKFASNVVEKCVTHASRTERAVLIDEVCTMNDGPHSALYTMMKDQYANYVVQKMIDVAEPGQRKIVMHKIRPHIATLRKYTYGKHILAKLEKYYMKNGVDLGPICGPPNGII [PUM1] | 51.5 °C | 51 °C | -1.3 | -1.48 | 0.186 | -0.102
7 | MAPLGGAPRLVLLFSGKRKSGKDFVTEALQSRLGADVCAVLRLSGPLKEQYAQEHGLNFQRLLDTSTYKEAFRKDMIRWGEEKRQADPGFFCRKIVEGISQPIWLVSDTRRVSDIQWFREAYGAVTQTVRVVALEQSRQQRGWVFTPGVDDAESECGLDNFGDFDWVIENHGVEQRLEEQLENLIEFIRSRL [PMVK] | 46.6 °C | 47.8 °C | 1.41 | 1.71 | -0.0155 | -0.0243
